Where a chain is given by its changes, count along the chain named.
B1: hIFNγRα(23-239).SG.hFc (Fc fusion, not shown: a dimerising Fc or GST)
chain: DLGPSSVPTPTNVTIESYNMNPIVYWEYQIMPQVPVFTVEVKNYGVKNSEWIDACINISHHYCNISDHVGDPSNSLWVRVKARVGQKESAYAKSEEFAVCRDGKIGPPKLDIRKEEKQIMIDIFHPSVFVNGDEQEVDYDPETTCYIRVYNVYVRMNGSEIQYKILTQKEDDCDEIQCQLAIPVSSLNSQYCVSAEGVLHVWGVTTEKSKEVCITIFSG
B2: hIFNγRα(23-239).TG.hFc.ARA.hIFNγRβ (Fc fusion, not shown: a dimerising Fc or GST)
chain (part 1 of 2): B1 chain with S218T
chain (part 2 of 2): ARASQLPAPQHPKIRLYNAEQVLSWEPVALSNSTRPVVYQVQFKYTDSKWFTADIMSIGVNCTQITATECDFTAASPSAGFPMDFNVTLRLRAELGALHSAWVTMPWFQHYRNVTVGPPENIEVTPGEGSLIIRFSSPFDIADTSTAFFCYYVHYWEKGGIQQVKGPFRSNSISLDNLKPSRVYCLQVQAQLLWNKSNIFRVGHLSNISCYETMADASTELQ
B3: hIFNγRα(24-239).SG.hFc (Fc fusion, not shown: a dimerising Fc or GST)
chain: LGPSSVPTPTNVTIESYNMNPIVYWEYQIMPQVPVFTVEVKNYGVKNSEWIDACINISHHYCNISDHVGDPSNSLWVRVKARVGQKESAYAKSEEFAVCRDGKIGPPKLDIRKEEKQIMIDIFHPSVFVNGDEQEVDYDPETTCYIRVYNVYVRMNGSEIQYKILTQKEDDCDEIQCQLAIPVSSLNSQYCVSAEGVLHVWGVTTEKSKEVCITIFSG
B4: hIFNγRα(24-239).TG.hFc.ARA.hIFNγRβ (Fc fusion, not shown: a dimerising Fc or GST)
chain (part 1 of 2): B3 chain with S217T
chain (part 2 of 2): B2 chain (part 2 of 2)
B5: hIFNγRα(24-239).TG.hIFNγRβ.SG.hFc (Fc fusion, not shown: a dimerising Fc or GST)
chain: LGPSSVPTPTNVTIESYNMNPIVYWEYQIMPQVPVFTVEVKNYGVKNSEWIDACINISHHYCNISDHVGDPSNSLWVRVKARVGQKESAYAKSEEFAVCRDGKIGPPKLDIRKEEKQIMIDIFHPSVFVNGDEQEVDYDPETTCYIRVYNVYVRMNGSEIQYKILTQKEDDCDEIQCQLAIPVSSLNSQYCVSAEGVLHVWGVTTEKSKEVCITIFTGSQLPAPQHPKIRLYNAEQVLSWEPVALSNSTRPVVYQVQFKYTDSKWFTADIMSIGVNCTQITATECDFTAASPSAGFPMDFNVTLRLRAELGALHSAWVTMPWFQHYRNVTVGPPENIEVTPGEGSLIIRFSSPFDIADTSTAFFCYYVHYWEKGGIQQVKGPFRSNSISLDNLKPSRVYCLQVQAQLLWNKSNIFRVGHLSNISCYETMADASTELQSG
B6: hIFNγRα(23-239).TG.hIFNγRβ.SG.hFc (Fc fusion, not shown: a dimerising Fc or GST)
chain: DLGPSSVPTPTNVTIESYNMNPIVYWEYQIMPQVPVFTVEVKNYGVKNSEWIDACINISHHYCNISDHVGDPSNSLWVRVKARVGQKESAYAKSEEFAVCRDGKIGPPKLDIRKEEKQIMIDIFHPSVFVNGDEQEVDYDPETTCYIRVYNVYVRMNGSEIQYKILTQKEDDCDEIQCQLAIPVSSLNSQYCVSAEGVLHVWGVTTEKSKEVCITIFTGSQLPAPQHPKIRLYNAEQVLSWEPVALSNSTRPVVYQVQFKYTDSKWFTADIMSIGVNCTQITATECDFTAASPSAGFPMDFNVTLRLRAELGALHSAWVTMPWFQHYRNVTVGPPENIEVTPGEGSLIIRFSSPFDIADTSTAFFCYYVHYWEKGGIQQVKGPFRSNSISLDNLKPSRVYCLQVQAQLLWNKSNIFRVGHLSNISCYETMADASTELQSG
B7: hIFNγRα(33-239).TG.hIFNγRβ.SG.hFc (Fc fusion, not shown: a dimerising Fc or GST)
chain: TNVTIESYNMNPIVYWEYQIMPQVPVFTVEVKNYGVKNSEWIDACINISHHYCNISDHVGDPSNSLWVRVKARVGQKESAYAKSEEFAVCRDGKIGPPKLDIRKEEKQIMIDIFHPSVFVNGDEQEVDYDPETTCYIRVYNVYVRMNGSEIQYKILTQKEDDCDEIQCQLAIPVSSLNSQYCVSAEGVLHVWGVTTEKSKEVCITIFTGSQLPAPQHPKIRLYNAEQVLSWEPVALSNSTRPVVYQVQFKYTDSKWFTADIMSIGVNCTQITATECDFTAASPSAGFPMDFNVTLRLRAELGALHSAWVTMPWFQHYRNVTVGPPENIEVTPGEGSLIIRFSSPFDIADTSTAFFCYYVHYWEKGGIQQVKGPFRSNSISLDNLKPSRVYCLQVQAQLLWNKSNIFRVGHLSNISCYETMADASTELQSG

Target: human interferon γ (human) (UniProt P01579)
Sequence (P01579 24-166 limits assumed): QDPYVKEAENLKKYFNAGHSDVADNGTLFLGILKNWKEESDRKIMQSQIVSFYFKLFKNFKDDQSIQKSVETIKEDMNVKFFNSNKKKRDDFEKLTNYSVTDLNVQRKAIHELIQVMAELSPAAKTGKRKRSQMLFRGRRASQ
Experiment: cell-based or functional assay

| Binder | IC50 (M), GAS-luciferase bioassay in HEK293 cells [M] | IC50 (M), ISRE-luciferase bioassay in HEK293 cells [M] |
| --- | --- | --- |
| B1 | 4.6e-09 | 2.57e-09 |
| B2 | 1e-09 | 7.9e-10 |
| B3 | 2.1e-08 | 1.2e-08 |
| B4 | 1.1e-08 | 6e-09 |
| B5 | 3.2e-09 | 1.3e-09 |
| B6 | 1.9e-10 | 5.3e-11 |
| B7 | 1.3e-08 | 2.4e-07 |

Reference: US20070020283A1
